Our source for the Kd values is patent US5693502.

By Kd is commonly meant the equilibrium constant for the complex coming apart. Higher therefore signals weaker binding.

Series [1] deals with Tth DNA polymerase (rTth) (Thermus thermophilus) (UniProt P52028). The experiment in a line: filter.
Series [2] concerns the target Taq DNA polymerase (rTaq) (Thermus aquaticus) (UniProt P19821). As to the kind of experiment: FP_none.
The target is the same in series [3]. As to the kind of experiment: filter. The settings on record: room temperature.

Chain of Taq DNA polymerase (rTaq) (Thermus aquaticus) (P19821 whole entry): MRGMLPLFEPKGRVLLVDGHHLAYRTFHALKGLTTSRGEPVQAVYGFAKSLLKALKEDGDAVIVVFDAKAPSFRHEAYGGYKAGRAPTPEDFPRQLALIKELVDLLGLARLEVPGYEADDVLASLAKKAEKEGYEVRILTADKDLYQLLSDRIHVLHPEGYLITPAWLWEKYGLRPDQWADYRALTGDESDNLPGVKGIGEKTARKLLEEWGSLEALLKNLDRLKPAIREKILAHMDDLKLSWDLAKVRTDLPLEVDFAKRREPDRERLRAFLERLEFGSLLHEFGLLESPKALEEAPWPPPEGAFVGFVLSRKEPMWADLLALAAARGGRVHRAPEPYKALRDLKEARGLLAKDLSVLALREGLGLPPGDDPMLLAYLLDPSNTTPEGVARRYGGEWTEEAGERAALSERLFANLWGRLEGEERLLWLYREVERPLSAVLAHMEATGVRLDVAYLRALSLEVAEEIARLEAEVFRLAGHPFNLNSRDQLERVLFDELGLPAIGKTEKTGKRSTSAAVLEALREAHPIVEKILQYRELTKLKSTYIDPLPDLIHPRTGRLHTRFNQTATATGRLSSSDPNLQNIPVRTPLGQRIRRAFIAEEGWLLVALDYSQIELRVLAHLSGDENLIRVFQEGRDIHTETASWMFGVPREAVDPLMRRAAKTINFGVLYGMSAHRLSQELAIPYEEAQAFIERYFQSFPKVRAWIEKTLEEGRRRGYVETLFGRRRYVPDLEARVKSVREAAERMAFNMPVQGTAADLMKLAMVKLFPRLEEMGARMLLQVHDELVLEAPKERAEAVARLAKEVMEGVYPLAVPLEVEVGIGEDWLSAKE
Chain of Tth DNA polymerase (rTth) (Thermus thermophilus) (P52028 whole entry): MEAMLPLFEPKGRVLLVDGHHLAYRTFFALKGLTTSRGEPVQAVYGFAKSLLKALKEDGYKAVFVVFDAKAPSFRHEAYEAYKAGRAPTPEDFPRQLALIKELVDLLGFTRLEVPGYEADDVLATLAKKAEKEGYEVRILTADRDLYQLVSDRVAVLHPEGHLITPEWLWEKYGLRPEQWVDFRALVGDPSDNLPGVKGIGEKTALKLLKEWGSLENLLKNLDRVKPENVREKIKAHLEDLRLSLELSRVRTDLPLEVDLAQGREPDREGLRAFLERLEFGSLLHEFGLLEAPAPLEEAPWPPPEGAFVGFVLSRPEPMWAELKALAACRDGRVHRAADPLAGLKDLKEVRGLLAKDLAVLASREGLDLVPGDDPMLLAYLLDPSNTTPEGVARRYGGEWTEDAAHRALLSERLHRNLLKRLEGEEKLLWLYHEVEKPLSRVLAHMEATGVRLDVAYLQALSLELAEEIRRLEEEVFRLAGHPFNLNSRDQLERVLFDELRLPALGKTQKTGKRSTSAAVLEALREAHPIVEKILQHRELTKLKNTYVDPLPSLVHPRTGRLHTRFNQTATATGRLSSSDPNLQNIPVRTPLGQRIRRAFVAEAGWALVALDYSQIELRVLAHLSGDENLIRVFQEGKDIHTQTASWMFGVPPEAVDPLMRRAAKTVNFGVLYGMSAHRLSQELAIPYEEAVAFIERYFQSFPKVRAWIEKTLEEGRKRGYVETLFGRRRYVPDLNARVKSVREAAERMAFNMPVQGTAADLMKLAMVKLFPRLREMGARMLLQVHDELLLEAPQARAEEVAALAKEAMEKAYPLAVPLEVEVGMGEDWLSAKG

Regarding “TTCTCGGTTGGTCTCTGGCGGAGCNNNNNNNNNNNNNNNNNNNNNNNNNNNNNNTCTTGTGTATGATTCGCTTTTCCC [Taq-enriched ssDNA pool (round 12)]”, the equilibrium dissociation constant (Kd) in series [1] (cross binding of Taq-selected pool, room temperature) stood at 0.2 nM; in series [2], 3.5 nM.
Consider “TTCTCGGTTGGTCTCTGGCGGAGCNNNNNNNNNNNNNNNNNNNNNNNNNNNNNNTCTTGTGTATGATTCGCTTTTCCC [unselected random 30N ssDNA pool]”, for which the Kd in series [3] (unselected pool, 10 mM Tris-HCl pH 8.3, 50 mM KCl, 2.5 mM MgCl2, tRNA, 0.01% hSA) was more than 50 nM; in series [1] (unselected pool, Bicine-KOH pH 8.3, 90 mM KCl, 3.5 mM Mn(OAc)2, room temperature), 70 nM.
Consider “TTCTCGGTTGGTCTCTGGCGGAGCNNNNNNNNNNNNNNNNNNNNNNNNNNNNNNTCTTGTGTATGATTCGCTTTTCCC [Tth-enriched ssDNA pool (round 10)]”, for which the Kd in series [3] (cross binding of Tth-selected pool, saturates at about 50%, about half of pool not interacting) is 0.3 nM; in series [1] (50 mM Bicine-KOH pH 8.3, 90 mM KCl, 3.5 mM Mn(OAc)2, tRNA, 0.01% hSA, room temperature), 5 nM.
